The values that follow come from ChEMBL document CHEMBL2074368, “Kinetic analysis of calcein and calcein-acetoxymethylester efflux mediated by the multidrug resistance protein and P-glycoprotein” (Biochemistry, 1998).

The subject of this series is CC(=O)OCOC(=O)CN(CC(=O)OCOC(C)=O)Cc1c(OC(C)=O)ccc2c1Oc1c(ccc(OC(C)=O)c1CN(CC(=O)OCOC(C)=O)CC(=O)OCOC(C)=O)C21OC(=O)c2ccccc21. As to the kind of experiment: TP_TRANSPORTER: efflux in K562/ADR cells. In kind it is functional, cell-based.

As a reminder, the Km is the concentration of substrate that gives half-maximal velocity. Regarding “ATP-dependent translocase ABCB1 (Homo sapiens)”, the Km turned out to be 0.12 µM.
